Assay results from article PMC4888461 (Biochemical Journal, 2016).
Where two headings read alike, the source gives them in different places. Values belong to the molecule of their own block, whether it stands above or below them.

B1: His-tagged fl-Gremlin-1 (natural protein, human, UniProt O60565 25-184, looked up)
chain: KKKGSQGAIPPPDKAQHNDSEQTQSPQQPGSRNRGRGQGRGTAMPGEEVLESSQEALHVTERKYLKRDWCKTQPLKQTIHEEGCNSRTIINRFCYGQCNSFYIPRHIRKEEGSFQSCSFCKPKKFTTMMVTLNCPELQPPTKKKRVTRVKQCRCISIDLD
B2: His-tagged ΔN-Gremlin-1 (domain or fragment, human, UniProt O60565 72-184, looked up)
chain: EVLESSQEALHVTERKYLKRDWCKTQPLKQTIHEEGCNSRTIINRFCYGQCNSFYIPRHIRKEEGSFQSCSFCKPKKFTTMMVTLNCPELQPPTKKKRVTRVKQCRCISIDLD
B3: untagged ΔN-Gremlin-1 (domain or fragment, human, UniProt O60565 72-184, looked up)
chain: B2 chain
B4: BMP-2 (bone morphogenetic protein 2), wild type (ligand, UniProt P12643 283-396, looked up)
chain: QAKHKQRKRLKSSCKRHPLYVDFSDVGWNDWIVAPPGYHAFYCHGECPFPLADHLNSTNHAIVQTLVNSVNSKIPKACCVPTELSAISMLYLDENEKVVLKNYQDMVVEGCGCR

Key:
[1] = molecular target: His-tagged fl-Gremlin-1 (human) (UniProt O60565); assay: BLI
[2] = molecular target: His-tagged ΔN-Gremlin-1 (human) (UniProt O60565); assay: BLI
[3] = molecular target: His-tagged fl-Gremlin-1 (human) (UniProt O60565); assay: BLI; remark: listed apart in the source
[4] = molecular target: His-tagged ΔN-Gremlin-1 (human) (UniProt O60565); assay: BLI; remark: listed apart in the source
SEC-SAXS = molecular target: the molecule itself; assay: SEC-SAXS
[5] = molecular target: B4; assay: BLI
SEC-MALS = molecular target: the molecule itself; assay: SEC-MALS
[6] = molecular target: B4; assay: BLI; remark: listed apart in the source
[7] = molecular target: B4; assay: BLI; remark: listed apart in the source
His-tagged fl-Gremlin-1 [8] = molecular target: B1; assay: BLI
His-tagged fl-Gremlin-1 [9] = molecular target: B1; assay: BLI; remark: listed apart in the source

Kd [1]: 32.5 nM
Kd [2]: 44.7 nM
Kd [3]: 45.9 nM
Molecule: BMP-2 mutant # 2 (66 L → R) (ligand)

Kd [2]: 176 nM
Kd [3]: 47.2 nM
Molecule: BMP-2 mutant # 4 (33 V → T, 34 A → S) (ligand)

Kd [2]: 301 nM
Molecule: BMP-2 mutant # 6 (90 L→ Q, 92 L → R) (ligand)

koff [4]: 0.001 s⁻¹
Kd [1]: 176 nM
Kd [3]: 176 nM
Molecule: BMP-2 mutant # 5 (98 V → T, 100 L → N) (ligand)

Kd [4]: 77.8 nM
Kd [2]: 75.4 nM
Kd [3]: 66.1 nM
Molecule: BMP-2 mutant # 1 (49 F → A) (ligand)

Kd [4]: 175 nM
Kd [2]: 95.9 nM
Kd [3]: 30.4 nM
Molecule: BMP-2 mutant # 3 (49 F → A, 66 L → R) (ligand)

Molecule: B1
stoichiometry N (SEC-SAXS): 2

Molecule: B2
Kd [5]: 5.2 nM
stoichiometry N (SEC-MALS): 2
Kd [6]: 16.7 nM
koff [6]: 0.005 s⁻¹

Molecule: B3
Kd [7]: 8.5 nM

Molecule: B4
Kd (His-tagged fl-Gremlin-1 [8]): 5.6 nM
Kd (His-tagged fl-Gremlin-1 [9]): 9 nM
koff (His-tagged fl-Gremlin-1 [9]): 0.0018 s⁻¹
